The results in this text go back to patent US20090214553A1.

For this experiment, the target named is human CTLA-4-murine Ig fusion protein (human) (UniProt P16410). The experiment can be described thus: sandwich ELISA on the CTLA4-muIg standard with the blocking pair BNI3 (coated) and biotinylated AS-33 (detecting).

“BNI3, CTLA-4 blocking mouse IgG2a mAb (antibody)”: the limit of sensitivity worked out at 6.25 ng/mL.
